Consider 141 substances from the supplement of paper PMC12042874.

± gives the uncertainty stated by the source.

A short description of this series: amyloid nucleation score (Sup35N fusion, yeast selection) (log enrichment); library NNK2; higher = more nucleation; inactive = no reads after selection. The procedure, abridged:
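DiMSum was used to calculate nucleation scores as log enrichment of output over input reads, centred on the mode score of non-aggregating sequences. Sequences with fewer than 100 input reads were not scored. Input and output came from Illumina sequencing of plasmid inserts in psi-negative yeast expressing peptides of 20 random codons fused to Sup35N, induced 24 hours with 100 μM copper sulfate and then grown 7 days at 30°C on medium lacking adenine and uracil.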
On to LTSCGLVWCSIRRPGMKALV, for which the amyloid nucleation score was -0.077 ± 0.76.
For the substance LTSWKDFRHN, the amyloid nucleation score was determined as 0.4 ± 0.5.
Next, LTVLLSMK: -0.911 ± 0.5; LTWSVVRKYSIALRCGGR: -0.002 ± 0.63; LTYILFGYFMASCFMCFFVS: 0.138 ± 1.1.
On to LVAKHSG, for which the amyloid nucleation score worked out at 0.693 ± 0.27.
To LVCYV belongs 0.611 ± 0.46; to LVEAFYNVWRRTSAHCETVC, -0.272 ± 0.55.
On to LVEGCILSRHQESVNLRFCL, for which the amyloid nucleation score is 1.22 ± 0.29.
LVFDACTPEEVGG returned an amyloid nucleation score of 0.735 ± 0.27.
For the substance LVGMSATYPTHNWFKVRTYF, the amyloid nucleation score was -0.104 ± 0.76.
Next, LVGSVWFEISFDSQMYSFG: “inactive”.
Substance LVGWSGLLTDALEFLLSKDV registered an amyloid nucleation score of -0.592 ± 0.76.
Turning to LVHYPIYFLDNGFRHGDWEG, the amyloid nucleation score was -0.187 ± 0.55.
Next, LVIALSFCY: 3.57 ± 0.069; LVIKCFCA: 6.476 ± 0.031; LVILEINVPKNIVSQRNYVP: 8.045 ± 0.03.
LVLAASTFQYSGRGYASDML: the amyloid nucleation score was found to be 1.49 ± 0.29.
LVLWM displayed an amyloid nucleation score of 1.68 ± 0.36.
Regarding LVLYVSKMPYMSEPRSIILR, the amyloid nucleation score amounted to 0.64 ± 0.58.
Substance LVNMGSGPALYLYPLSIMVK displayed an amyloid nucleation score of -1.42 ± 1.1.
In turn, LVNSGKLVIPPAVSWWYNWF gave an amyloid nucleation score of -0.763 ± 0.37.
The substance LVNVIS displayed an amyloid nucleation score of 0.2 ± 0.35.
For LVQGNTFE, the amyloid nucleation score was found to be 1.19 ± 0.44.
To LVQYMTMRCVFSNIGGMTSG belongs 0.263 ± 0.64; to LVRDHRNRVGFCQMSQ, 0.248 ± 0.44.
The substance LVRTLAYCASKNNFVRL yielded an amyloid nucleation score of -0.038 ± 0.63.
Take LVSERGSWVGLRFCSRSSVT: the amyloid nucleation score worked out at 0.359 ± 0.56.
LVSKSERER yielded an amyloid nucleation score of 5.451 ± 0.053.
The substance LVSLLFFGSVSLAKCQWN displayed an amyloid nucleation score of -0.526 ± 0.79.
Regarding LVSYQVFSWSEPENSV, the amyloid nucleation score is -0.239 ± 0.79.
To LVTECNRDGTLDG belongs -0.582 ± 0.49; to LVVLLMRWSLPLNVESGMF, -0.105 ± 1.1.
Substance LVVNASLRWIRHWSKGF showed an amyloid nucleation score of 4.515 ± 0.035.
Turning to LVYLELTELQLCDAFAKVKN, the amyloid nucleation score came out at 0.133 ± 0.25.
Regarding LWFITCNMSGHWLLTERR, the amyloid nucleation score was found to be 4.39 ± 0.064.
To LWFQVTFDRICLQITTHTEL belongs 4.86 ± 0.075; to LWFYFFRDYLIGPMWNKIVI, -0.898 ± 1.1.
For LWGMGGAWEPERETLVV, the amyloid nucleation score is -0.268 ± 0.63.
For the substance LWQLPIILWFLRNCVMRNPA, the amyloid nucleation score was -0.723 ± 0.79.
Next, LWRSVAKIVSPN: -1.74 ± 0.78; LWSSKYYKPPYWDNVVCSII: -0.699 ± 1.
To LWVGQLTTY belongs 0.199 ± 0.45.
Turning to LYAVRSALYFCTVYFGSSNR, the amyloid nucleation score worked out at 3.18 ± 0.13.
Next, LYDTNVKWVFSCYSKACSCK: -0.323 ± 0.79; LYIALIFSISHGWCIAFRLT: -0.214 ± 1.1.
Turning to LYKYLCAIIKNVDKVVPLRM, the amyloid nucleation score is -0.904 ± 0.49.
For LYLKFYLCTGKDNDWNT, the amyloid nucleation score result is “inactive”.
With LYLSVPQYYFSCLFSMVEVQ, the amyloid nucleation score was -1.07 ± 0.61.
For the substance LYMAFREMQSWQHCW, the amyloid nucleation score is -0.227 ± 0.49.
For LYPCNLELVQQHFLVMTNLG, the amyloid nucleation score is -0.034 ± 0.23.
In turn, LYPLCYGL had an amyloid nucleation score of -0.829 ± 1.1.
As for LYPSFEDTLRWPSPRGMKMC, the amyloid nucleation score was 0.182 ± 1.1.
LYQNSTILWLCCLWPVPYSG came in with an amyloid nucleation score of 9.921 ± 0.076.
Substance LYRAGVAFVCTYFVNSGEF displayed an amyloid nucleation score of 2.61 ± 0.13.
As for LYRRIRCFIYPFCKGVRCLC, the amyloid nucleation score was -1.77 ± 0.62.
Take LYRTYLYTDYFTKMHV: the amyloid nucleation score was -1.16 ± 0.76.
In turn, LYSLEKTCQVELCRRISTLL had an amyloid nucleation score of -1.35 ± 0.75.
To LYSVGFRLTS belongs “inactive”; to LYTSSATHLIRP, “inactive”.
Turning to LYVCPSASWESCPGGIKRMG, the amyloid nucleation score result was “inactive”.
Next, LYVTQTS: -0.053 ± 0.35; LYYAVQFLKIRTLLPECSLQ: 0.16 ± 0.43.
To LYYGNPEKIPADGLSSHIMQ belongs 3.7 ± 0.063; to LYYTCDIHTGRWWVLLVHGV, 4.28 ± 0.11.
In turn, MAACCHKLWLTCFDTVRMFN registered an amyloid nucleation score of -0.478 ± 0.41.
As to MAESELQICMFYTMGCWDMV, the amyloid nucleation score is -0.165 ± 0.42.
For the substance MANVADMIVDGLM, the amyloid nucleation score came out at 0.525 ± 0.49.
Regarding MAVKRGIHRQADPGITWDTE, the amyloid nucleation score was determined as 5.17 ± 0.082.
To MCCFRNSNVGAYRSSSIVNG belongs -0.403 ± 1.
In the case of MCGKFNTSSCIEIYRDSEFM, the amyloid nucleation score is -0.432 ± 0.23.
In turn, MCLMYANWERFDQKNGLR returned an amyloid nucleation score of 4.12 ± 0.12.
For MCMGFRRPLTRTFFRTLCAR, the amyloid nucleation score came to 0.684 ± 0.54.
To MCMLDRRYQTVMSKVWPNLT belongs 0.224 ± 0.33.
In the case of MCPNGPAVIGMLFRLHTLFK, the amyloid nucleation score is 0.168 ± 0.35.
The substance MCSQGCTHFRVAWPLRACRW registered an amyloid nucleation score of 3.85 ± 0.072.
In turn, MCVLECFDAGSGYLR had an amyloid nucleation score of 1.06 ± 0.59.
To MDGVHFVRYQM belongs 0.181 ± 0.45; to MDIFRYVCNCYKSSNKKVFG, -1.25 ± 0.78.
Next, MDNTWNLCDSFYSCSGDLNT: -0.595 ± 0.35; MDSIHFV: -0.029 ± 0.41; MDSILVNVYVVNW: 9.259 ± 0.042.
MDVGYCRNAVHRMLGMNCMM displayed an amyloid nucleation score of 4.95 ± 0.062.
In turn, MEEGRS showed an amyloid nucleation score of 0.525 ± 0.28.
MEFSAKFIYFS came in with an amyloid nucleation score of 1.48 ± 0.11.
MEPSVIRF had an amyloid nucleation score of -0.271 ± 0.55.
Turning to MESRILRNIYFCLTCKPSQW, the amyloid nucleation score was 2.24 ± 0.17.
In turn, MEVNLKVKSLCQWGT showed an amyloid nucleation score of 6.791 ± 0.045.
Substance MEWKSGL yielded an amyloid nucleation score of 0.534 ± 0.64.
To MFCKLRFSVFLAWVDVK belongs 0.356 ± 0.6.
Next, MFEIIPFPTSISDRGSTIYM: -0.855 ± 0.55.
Regarding MFGGPTFNMRWFFTFFSRGR, the amyloid nucleation score was determined as 4.46 ± 0.046.
For MFILGVRPMISKSHNVPTQR, the amyloid nucleation score is -0.171 ± 0.42.
In the case of MFKDNLLIVLFMLLMGLMRW, the amyloid nucleation score stood at 3.45 ± 0.069.
In the case of MFKSCQEGIKHWNNPT, the amyloid nucleation score stood at 3.59 ± 0.051.
On to MFLILMCNCSYVGILRPNST, for which the amyloid nucleation score worked out at 6.672 ± 0.03.
Next, MFRGVQN: 0.899 ± 0.53; MFVVKNRGCVM: -0.16 ± 0.3.
MFWSTSYRNNFWTPIWEKLG registered an amyloid nucleation score of -0.597 ± 0.39.
With MFYFRFLKGTSQMIKAAMRS, the amyloid nucleation score is -0.059 ± 0.49.
To MGAYEGDRVQMLEHADFRKN belongs -0.355 ± 0.74.
In turn, MGCYFSSLSTTHKGAVDVQL came in with an amyloid nucleation score of 0.13 ± 0.24.
In turn, MGDTRNGYFSRMLFYTDCPW displayed an amyloid nucleation score of 0.037 ± 0.43.
With MGFSRTLYIRKDIFLFVLHL, the amyloid nucleation score is -0.759 ± 0.64.
Turning to MGMFKTCVHLNCVYR, the amyloid nucleation score was 5.229 ± 0.05.
In the case of MGSLSHYRAQDRLREQLWLW, the amyloid nucleation score is 0.458 ± 0.19.
Substance MGVLEGLSWVSRNKISGVLQ gave an amyloid nucleation score of -0.191 ± 0.55.
As to MHASDDMLKCWYKCAEVRPA, the amyloid nucleation score is 1.29 ± 0.31.
To MHEEP belongs 1.29 ± 0.23.
Next, MHRFRMSLVLRRGSGLVGWF: -0.081 ± 1.1.
On to MHSLCRM, for which the amyloid nucleation score is -1.24 ± 0.53.
To MIAVV belongs 0.861 ± 0.2.
For MIFSEFGAEVIVGWFVVSVG, the amyloid nucleation score is -0.9 ± 0.76.
MINFHKHGLTI returned an amyloid nucleation score of -0.482 ± 0.35.
Next, MINYCREIQFRM: 3.63 ± 0.12; MIPKVFSIRKSVGIYWNAEY: -1.04 ± 0.39.
Substance MIQHEKQMWWADNSYP came in with an amyloid nucleation score of 0.483 ± 0.24.
With MIQHICELLG, the amyloid nucleation score is -0.317 ± 0.32.
Substance MKGNGCNIFRQGTWRDSFAD came in with an amyloid nucleation score of -0.715 ± 0.41.
On to MKLYSISELLFKFLLHSLCA, for which the amyloid nucleation score result was “inactive”.
Next, MLDVCGVLHLPRRSLIAFVA: 1.27 ± 0.21; MLFGFFGIPRGSRVLFSNV: “inactive”; MLFLMGPVWTCFKICNSLLT: 0.333 ± 0.23.
Turning to MLFNLYISTSTLVDRS, the amyloid nucleation score amounted to 1.23 ± 0.17.
In turn, MLGRKHSWVA showed an amyloid nucleation score of 1.67 ± 0.33.
In turn, MLGRVKTKVACYG had an amyloid nucleation score of 0.409 ± 0.64.
As for MLNNRLNPLFARESGELLGA, the amyloid nucleation score was determined as 0.871 ± 0.15.
Consider MLNSVLAQAMRH, for which the amyloid nucleation score was found to be 1.28 ± 0.53.
Consider MLPIRRIMQQFHGKPYNCYT, for which the amyloid nucleation score result is “inactive”.
To MLRGSRWPSSGTFSCDDSKR belongs -0.038 ± 0.45.
To MLSFHLSVVAETMTWWSTRY belongs 0.857 ± 0.19; to MLSIVNCNGSRVGYWTDS, 5.85 ± 0.08.
Take MLWVYWLGCHVRSYNLGYLR: the amyloid nucleation score was -0.255 ± 0.63.
In turn, MLWWLYLTDYSISGYNVGKM came in with an amyloid nucleation score of 0.433 ± 0.74.
With MLYSWKFPEVASGNLKCRLE, the amyloid nucleation score is -0.24 ± 0.32.
Next, MMDRV: -0.092 ± 0.65; MMLSYILR: 0.223 ± 0.77.
MMMLLG came in with an amyloid nucleation score of 0.505 ± 0.13.
MNHTDGQHCFVSWRCLDGWR yielded an amyloid nucleation score of 0.705 ± 0.66.
To MNKCFFTSRSEG belongs “inactive”.
Next, MNLSGVQVAMFSSQPVALTG: 0.097 ± 0.63.
